Experimental data reported in patent US20060110789.

How the values were obtained:
[1] = target: T1, diketide-ACP2(4) (DEBS ACP2 with the C-terminal linker of module 4, loaded with diketide), Q03131
T1 chain: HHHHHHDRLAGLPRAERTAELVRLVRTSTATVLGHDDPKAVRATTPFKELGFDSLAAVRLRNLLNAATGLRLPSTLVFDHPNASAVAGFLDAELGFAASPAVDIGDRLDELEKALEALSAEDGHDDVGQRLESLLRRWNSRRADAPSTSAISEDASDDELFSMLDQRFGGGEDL

[2] = target: T2, diketide-ACP2(2) (DEBS ACP2 with its natural C-terminal linker, loaded with diketide), Q03131
T2 chain: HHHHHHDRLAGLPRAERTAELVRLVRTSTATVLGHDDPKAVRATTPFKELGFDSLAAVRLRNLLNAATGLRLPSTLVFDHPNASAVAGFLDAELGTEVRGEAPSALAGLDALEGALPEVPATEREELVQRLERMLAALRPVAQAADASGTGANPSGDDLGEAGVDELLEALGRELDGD

[3] = target: T3, diketide-ACP4(4) (DEBS ACP4 with its natural C-terminal linker, loaded with diketide), Q03132
T3 chain: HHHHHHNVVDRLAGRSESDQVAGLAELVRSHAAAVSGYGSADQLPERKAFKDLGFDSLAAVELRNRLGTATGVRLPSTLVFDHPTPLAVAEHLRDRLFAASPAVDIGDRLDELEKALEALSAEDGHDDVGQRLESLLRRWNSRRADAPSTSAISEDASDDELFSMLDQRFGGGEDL

B1: M3+TE (module 3 of DEBS with its own N-terminal linker, fused to thioesterase) (protein)
chain: VTDSEKVAEYLRRATLDLRAARQRIRELESIAIVSMACRLPGGVNTPQRLWELLREGGETLSGFPTDRGWDLARLHHPDPDNPGTSYVDKGGFLDDAAGFDAEFFGVSPREAAAMDPQQRLLLETSWELVENAGIDPHSLRGTATGVFLGVAKFGYGEDTAAAEDVEGYSVTGVAPAVASGRISYTMGLEGPSISVDTACSSSLVALHLAVESLRKGESSMAVVGGAAVMATPGVFVDFSRQRALAADGRSKAFGAGADGFGFSEGVTLVLLERLSEARRNGHEVLAVVRGSALNQDGASNGLSAPSGPAQRRVIRQALESCGLEPGDVDAVEAHGTGTALGDPIEANALLDTYGRDRDADRPLWLGSVKSNIGHTQAAAGVTGLLKVVLALRNGELPATLHVEEPTPHVDWSSGGVALLAGNQPWRRGERTRRARVSAFGISGTNAHVIVEEAPEREHRETTAHDGRPVPLVVSARTTAALRAQAAQIAELLERPDADLAGVGLGLATTRARHEHRAAVVASTREEAVRGLREIAAGAATADAVVEGVTEVDGRNVVFLFPGQGSQWAGMGAELLSSSPVFAGKIRACDESMAPMQDWKVSDVLRQAPGAPGLDRVDVVQPVLFAVMVSLAELWRSYGVEPAAVVGHSQGEIAAAHVAGALTLEDAAKLVVGRSRLMRSLSGEGGMAAVALGEAAVRERLRPWQDRLSVAAVNGPRSVVVSGEPGALRAFSEDCAAEGIRVRDIDVDYASHSPQIERVREELLETTGDIAPRPARVTFHSTVESRSMDGTELDARYWYRNLRETVRFADAVTRLAESGYDAFIEVSPHPVVVQAVEEAVEEADGAEDAVVVGSLHRDGGDLSAFLRSMATAHVSGVDIRWDVALPGAAPFALPTYPFQRKRYWLQPAAPAAASDELAYRVSWTPIEKPESGNLDGDWLVVTPLISPEWTEMLCEAINANGGRALRCEVDTSASRTEMAQAVAQAGTGFRGVLSLLSSDESACRPGVPAGAVGLLTLVQALGDAGVDAPVWCLTQGAVRTPADDDLARPAQTTAHGFAQVAGLELPGRWGGVVDLPESVDDAALRLLVAVLRGGGRAEDHLAVRDGRLHGRRVVRASLPQSGSRSWTPHGTVLVTGAASPVGDQLVRWLADRGAERLVLAGACPGDDLLAAVEEAGASAVVCAQDAAALREALGDEPVTALVHAGTLTNFGSISEVAPEEFAETIAAKTALLAVLDEVLGDRAVEREVYCSSVAGIWGGAGMAAYAAGSAYLDALAEHHRARGRSCTSVAWTPWALPGGAVDDGYLRERGLRSLSADRAMRTWERVLAAGPVSVAVADVDWPVLSEGFAATRPTALFAELAGRGGQAEAEPDSGPTGEPAQRLAGLSPDEQQENLLELVANAVAEVLGHESAAEINVRRAFSELGLDSLNAMALRKRLSASTGLRLPASLVFDHPTVTALAQHLRICCAGTAAISGPHEFTRLAGALRGIAPVRAVPQPGYEEGEPLPSSMAAVAAVQADAVIRTQGDKPFVVAGHSAGALMAYALATELLDRGHPPRGVVLIDVYPPGHQDAMNAWLEELTATLFDRETVRMDDTRLTALGAYDRLTGQWRPRETGLPTLLVSAGEPMGPWPDDSWKPTWPFEHDTVAVPGDHFTMVQEHADAIARHIDAWHHHHHH
- kcat/KM, fold decrease against the matched reaction (FIG. 27 B) [1]: fell approximately 3-5 fold and 80-200 fold, respectively
- triketide lactone formation at 20 µM substrate (FIG. 27 B) [1]: transfer of diketide from the donor ACP to the acceptor module occurred at 20 µM substrate concentration
- k60 µM (overall rate of product formation at 60 µM substrate) [2]: 1.4 min-
- kcat/KM [2]: 6500 M⁻¹ s⁻¹
- triketide lactone formation at 20 µM substrate (FIG. 27 A) [2]: transfer of diketide from the donor ACP to the acceptor module occurred at 20 µM substrate concentration
- triketide lactone formation at 20 µM substrate (FIG. 27 D) [3]: no product was detected at the same substrate concentrations
